Measurements: patent publication US20160145654A1

Tests used:
[1] = target: labeled mouse IgG2b monoclonal antibody conjugated to phycoerythrin; assay: FACS of particles with 10 µg/ml PE labeled mouse IgG2b mAb
[2] = target: human IgG from pooled human serum (Sigma-Aldrich); assay: ELISA of heated granules, human serum, anti-IgG-HRP
[3] = target: human IgG from pooled human serum (Sigma-Aldrich); assay: ELISA, granules coated on wells, pooled human serum, polyclonal anti-IgG-HRP, OPD
[4] = target: labeled mouse IgG2b monoclonal antibody conjugated to phycoerythrin; assay: FACS of particles with 10 µg/mL PE labeled mouse IgG2b mAb

- fold more IgG bound per particle against particles from pBHR69-ZZ(-)phaC [1]: > 10 fold
- binding capacity after heating for 15 min at 60° C. [2]: 60%
- fold increase in absorption at 490 nm against wild type PHA granules [3]: > 2 fold
- fold increased binding affinity against particles from pBHR69-ZZ(-)phaC (about 150 nm) [4]: 10 fold
Substance: ZZ domain-PHA synthase fusion without signal peptide, on PHA granules (from UniProt P23608 1-589)
